Data taken from the supplement of paper PMC7877785.
± gives the uncertainty stated by the source.

Experiment: self-splicing fitness, log relative to wild type (ln ratio); higher = more splicing; Tetrahymena group I intron in knt gene, E. coli kanamycin selection, DiMSum; sequences stand for … in CUCUCU…GGAGGGAAAAGUUAUCAGGCAUGCACCUGGUAGCUAGUCUUUAAACCAAUAGAUUGCAUCGGUUUAAAAGGCAAGACCGUCAAAUUGCGGGAAAGGGGUCAACAGCCGUUCAGUACCAAGUCUCAGGGGAAACUUUGAGAUGGCCUUGCAAAGGGUAUGGUAAUAAGCUGACGGACAUGGUCCUAACCACGCAGCCAAGUCCUAAGUCAACAGAUCUUCUGUUGAUAUGGAUGCAGUUCACAGACUAAAUGUCGGUCGGGGAAGAUGUAUUCUUCUCAUAAGAUAUAGUCGGACCUCUCCUUAAUGGGAGCUAGCGGAUGAAGUGAUGCAACACUGGAGCCGCUGGGAACUAAUUUGUAUGCGAAAGUAUAUUGAUUAGUUUUGGAGUACUCGUGGUCG
Method in brief: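 DiMSum derived fitness as the error-weighted combination of fold changes across replicates, kanamycin versus no kanamycin, normalised to wild type. E. coli BL21(DE3) held the library, which randomised all eight P1ex-region intron nucleotides within the knt kanamycin-resistance gene on pET-22b(+). Six replicate transformations grew overnight at 37°C or 30°C on LB agar with or without 25 μg/mL kanamycin, also containing 100 μg/mL carbenicillin, 50 μM IPTG and 0.2% rhamnose, and pooled colonies were amplicon-sequenced on an Illumina HiSeq 2500.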

| Sequence | self-splicing fitness (ln) (30 °C) | self-splicing fitness (ln) (37 °C) |
| --- | --- | --- |
| AAUGAGCAAUAUUACGACCG | -3.45 ± 0.36 | -1.24 ± 0.34 |
| AAUGAGCAAUAUUACGACGG | -3.86 ± 0.19 | -2.3 ± 0.21 |
| AAUGAGCAAUAUUACGAGAA | -2.17 ± 0.23 | -2.03 ± 0.32 |
| AAUGAGCAAUAUUACGAGCC | -1.79 ± 0.44 |  |
| AAUGAGCAAUAUUACGAGCU | -3.15 ± 0.24 | -3.57 ± 0.42 |
| AAUGAGCAAUAUUACGAGGU | -4.31 ± 0.29 | -2.49 ± 0.17 |
| AAUGAGCAAUAUUACGAUAA | -3.11 ± 0.17 | -2.51 ± 0.2 |
| AAUGAGCAAUAUUACGAUCA |  | -2.46 ± 0.31 |
| AAUGAGCAAUAUUACGCAAC | -2.46 ± 0.22 | -2.51 ± 0.44 |
| AAUGAGCAAUAUUACGCACC |  | -1.2 ± 0.48 |
| AAUGAGCAAUAUUACGCCGG | -3.52 ± 0.47 | -2.35 ± 0.36 |
| AAUGAGCAAUAUUACGCCGU |  | -2.55 ± 0.26 |
| AAUGAGCAAUAUUACGCGCG | -2.52 ± 0.18 | -1.9 ± 0.2 |
| AAUGAGCAAUAUUACGCUCU | -3.18 ± 0.19 | -3.53 ± 0.23 |
| AAUGAGCAAUAUUACGGACC |  | -1.08 ± 0.44 |
| AAUGAGCAAUAUUACGGCAG | -2.62 ± 0.24 | -1.87 ± 0.46 |
| AAUGAGCAAUAUUACGGCAU | -1.55 ± 0.12 | -0.695 ± 0.12 |
| AAUGAGCAAUAUUACGGCCC | -1.23 ± 0.47 | -1.48 ± 0.37 |
| AAUGAGCAAUAUUACGGGCU | -2.51 ± 0.18 | -2.21 ± 0.46 |
| AAUGAGCAAUAUUACGGUCA | -1.92 ± 0.28 | -1.45 ± 0.36 |
| AAUGAGCAAUAUUACGUAAU | -3.08 ± 0.17 | -1.33 ± 0.15 |
| AAUGAGCAAUAUUACGUACA | -2.3 ± 0.36 | -3.21 ± 0.33 |
| AAUGAGCAAUAUUACGUAGC | -2.91 ± 0.2 | -2.05 ± 0.36 |
| AAUGAGCAAUAUUACGUAUU | -3.41 ± 0.14 | -2.48 ± 0.16 |
| AAUGAGCAAUAUUACGUCGC | -3.95 ± 0.29 | -2.79 ± 0.32 |

| Sequence | self-splicing fitness (ln) (30 °C) | self-splicing fitness (ln) (37 °C) |
| --- | --- | --- |
| AAUGAGCAAUAUUACGUCGG | -3.31 ± 0.22 | -2.44 ± 0.4 |
| AAUGAGCAAUAUUACGUGUC | -3.39 ± 0.25 | -3.65 ± 0.39 |
| AAUUAGCAAUAUUACGAAAC |  | -0.761 ± 0.4 |
| AAUUAGCAAUAUUACGAACC | -0.0097 ± 0.32 | -0.827 ± 0.36 |
| AAUUAGCAAUAUUACGAAGU | -2.79 ± 0.21 | -1.05 ± 0.17 |
| AAUUAGCAAUAUUACGAAUA | -1.67 ± 0.41 | 0.49 ± 0.3 |
| AAUUAGCAAUAUUACGACUU | 0.0659 ± 0.11 | 0.0237 ± 0.14 |
| AAUUAGCAAUAUUACGAGAG | -3.43 ± 0.23 | -1.09 ± 0.18 |
| AAUUAGCAAUAUUACGAGGC | -2.7 ± 0.32 | -2.6 ± 0.44 |
| AAUUAGCAAUAUUACGAGUA | -1.86 ± 0.24 | -1.16 ± 0.18 |
| AAUUAGCAAUAUUACGAUCG | -0.473 ± 0.13 | 0.0147 ± 0.16 |
| AAUUAGCAAUAUUACGAUGC | -1.25 ± 0.15 | -0.872 ± 0.18 |
| AAUUAGCAAUAUUACGAUUC | -2.85 ± 0.24 | -1.13 ± 0.34 |
| AAUUAGCAAUAUUACGCAAG | -0.991 ± 0.13 | -1.4 ± 0.19 |
| AAUUAGCAAUAUUACGCACG | -2.18 ± 0.2 | -0.641 ± 0.17 |
| AAUUAGCAAUAUUACGCCUG | -0.979 ± 0.14 | -0.733 ± 0.21 |
| AAUUAGCAAUAUUACGCCUU | -0.243 ± 0.11 | -0.0919 ± 0.12 |
| AAUUAGCAAUAUUACGCGAA | -1.34 ± 0.15 | -1.89 ± 0.25 |
| AAUUAGCAAUAUUACGCGAU | -3.62 ± 0.32 | -2.31 ± 0.23 |
| AAUUAGCAAUAUUACGCGGU | -3.63 ± 0.21 | -1.55 ± 0.21 |
| AAUUAGCAAUAUUACGCUCA | -0.656 ± 0.12 | -0.204 ± 0.16 |
| AAUUAGCAAUAUUACGGAGA | -3.3 ± 0.45 | -1.98 ± 0.36 |
| AAUUAGCAAUAUUACGGCAG | -0.691 ± 0.11 | -0.322 ± 0.1 |
| AAUUAGCAAUAUUACGGCGG | -1.81 ± 0.11 | -0.193 ± 0.13 |
| AAUUAGCAAUAUUACGGCUG | -0.324 ± 0.082 | 0.339 ± 0.12 |
